{"source": "paper PMC2156102", "key": {"[1]": {"biological_target": "LexABD-Rac1G12V (fusion of the LexA DNA binding domain with Drosophila Rac1 G12V) (Drosophila) (UniProt P40792)", "assay": "two-hybrid; same fusions; quantification of ß-galactosidase activity in liquid assays on total protein extracts, three measurements"}, "[2]": {"biological_target": "LexABD-Rac1G12V (fusion of the LexA DNA binding domain with Drosophila Rac1 G12V) (UniProt P40792)", "assay": "yeast two-hybrid, ß-galactosidase activity in total protein extracts", "conditions": "parent: est. 6.4; read off a plot"}}, "data": [{"substance": "LbGAPR74A (GAL4 activation domain fusion) (natural protein)", "values": [{"measurement": "fold lower interaction (ß-galactosidase activity) than wild-type LbGAP", "setting": "[1]", "value": 3, "unit": "fold"}]}, {"substance": "GAL4AD-LbGAP (fusion of the GAL4 activation domain with LbGAP) R115A", "values": [{"measurement": "response (ß-Galactosidase units)", "setting": "[2]", "value": 0.34}]}, {"substance": "GAL4AD-LbGAP (fusion of the GAL4 activation domain with LbGAP) K111A", "values": [{"measurement": "response (ß-Galactosidase units)", "setting": "[2]", "value": 0.38}]}, {"substance": "LbGAPS190A (GAL4 activation domain fusion) (natural protein)", "values": [{"measurement": "fold lower interaction (ß-galactosidase activity) than wild-type LbGAP", "setting": "[1]", "value": 3, "unit": "fold"}]}, {"substance": "GAL4AD-LbGAP (fusion of the GAL4 activation domain with LbGAP) (natural protein)", "values": [{"measurement": "ß-galactosidase activity relative to that of LbGAP with Rac2G12V", "setting": "[1]", "value": 2, "unit": "fold"}]}]}
